Reference: a protein production outcome set (Wang et al. 2014)

Test: label from the status in PepcDB records

Sequence | protein production
MPQPDPQGFRRSLFLYRRAGMAEIGDFAVKFMIGIRSKRMITLPSLNNLPSKWDEIRHCLETRVFECGVMPYPNLTECEAGQFERDFWDNIGCAPEEYVRIRRAIRLLELRYPDSLNELVCAAIATPLGEMLAVFGVKGLCLLEFVGQKYLEQEIAAVQKALRGRFVFREDGRMQFLRQELDLYFKGHLKTFATPLEQIGTEFQKQAWDALLAIPYGETRSYKEQAQRLGNPKAVRAVAAANGQNKVSVMIPCHRVIGSDGKLTGYAGGLNRKQFLLALERGEVQTALF | failed
MPQPTSQQRASVASSQSTQGAVGWSAATGWVVLFVAVALVVWFVSLDMRHLVGPDEGRYAEISREMFASGDWVTIRYNALKYFEKPPFHMWVTVVGYELFGLGEWQARLAVALSGLLGIGVSMMAARRWFGARAAAFTGLALLAAPMWSVAAHFNTLDMTLAGVMSCVLAFMLMGQHPDASVAARRGWMVACWAAMGVAILTKGLVGIALPGLVLVVYTLVTRDWGLWRRLHLALGVVVMLVITVPWFYLVSVRNPEFPNFFFIHEHWQRYTSNIHSRSGSVFYFLPLVIGGFLPWAGIFPKLWTAMRAPVEGTQARFRPALMAGIWAIAIFVFFSISRSKLPGYIVPVIPALGILAGVALDRLSPRSWGKQLIGMAIVAACGLLASPVVATLNANHIPNSFYRAYAVWVAVAFVVMLLGIAVARLLLRRGVLPSVAVYAMGMYLGFTVALLGHETVGRPASGADIAPQIAQKLTPEMPLYGVQMLDHTLPFYLRHPLMMVGQADELTFGATVEPQRVVPDVDSFTKLWKNGQPAMAVMSPDTYLALAPTLSMYVVARDWRRVVVANVASLAGPQ | failed
MPQPTVLLLARADLSPVGTEFTTGPIDAHDPFDSGRRTAFVDEQGIAAGIVEFGTALSVEAYPYTEMLVMHRGSVTLTSGTDSVTLSTGESAVIGRGTQVRIDAQPESLWAFCASTQASGPDKSGITALDRLALLTPSSPPDPSIMISPLPQCRSNNLFEDTASTLRIGVWDSTPYERISRPHKIHELMNLIEGRVVLSLENGSSLTVNTGDTVFVAQGAPCKWTSTGYVRKFYAVT | not failed
MPQTSSLLGIDALYQFTGAGAQLFSGALFYTVIVRFFSASQVGAVALFIAIIGLFNLIFSFGLGTAVQHFASYHLGRQEYATAKSIVFKILILGIIFSSIGLITMFYLAKPISITFMHTAQYTPIVKLLSIVLVGDVLFGLLNGSALGLQLFRASGLMNIIIWITYYSTALVLAFLLKSLYYVVVGWSVGIFLGVILYLYLIIKSTKNYKGRPRHLTPSLLFQFSIPVLLSSIISYGATYIDRFIVAGLMTLSALGVYNFALLVASSIGFIVAPLNNIMLPKFSEFYGEGNRENIKNRTAIATTVVAGVYVPAALGVAVLSKMIITLLAGKYYEEGSDAISIIMVFSALFVTSNVMTQLIAAVRETRVFIYSSAASLASNAILSIILIPHFGIEGASIGFSSIYAASFFVLYKYAKKTGFYQANVYDLAKVWGSSLVMVFVVLAFEVRFGTSIDLLVPYILLGAVVYLGMIKSTRLIHRNEALFLSSLFPQSMPFITKLIRLISSE | failed
MPREFKSFGSTEKSLLSKGHGEPSYSEIYAEPENFLEIEVHNPKTHIPNGMDSKGMFTDYEIICRTNLPSFHKRVSKVRRRYSDFEFFRKCLIKEISMLNHPKVMVPHLPGKILLSNRFSNEVIEERRQGLNTWMQSVAGHPLLQSGSKVLVRFIEAEKFVG | not failed
MPRITTDTIIADVLRIDRGTIPIFLNNGLHCLGCPSAQGESIEEACALHGIDAQKLVDELNEYLKSKGLLDLEHHHHHH | not failed
MPRMEALFNTVVPVALVVLSGYLLGRQLEMDLSTLSRLTLYALVPALILDSMYRAEYTLEGVWGLVLGFSLTYALLFLLVQGAGKLFGLSRETTKTLLVCGLFPNSGNMGLSLVYFALGEEGLRRAVVYFLLSSALMFGLGPAFIRGGSLKEGLLFTLRLPLFYALFLGLLLKALGLSLPFRLEEGVRLMGQAAIPVLLLTLGMQMGKTRFHLGPFEGAASALRLLLAPLVAYGVGALLGLPRLEHQVLVLQSATPVAVNAFLLTREFGGDALRVARSVVVSTFLAFLTVPLVLYLLGVR | failed
MPRPDNVPVYTMRQLAAFVAVAETGTISGAAERMHLSQSALSAAVTDLEKALKAQLCVRRRARGVQLTPTGEAVLSRARALLQQAGELQSDASGEGGV | failed
MPRPSLRRGEETSGARSLHEIAPPAEKAVRKPLNLLPFRKDTPMTKDSYFHKSRAGVAGAPLFVLLHGTGGDENQFFDFGARLLPQATILSPVGDVSEHGAARFFRRTGEGVYDMVDLERATGKMADFIKANREHYQAGPVIGLGFSNGANILANVLIEQPELFDAAVLMHPLIPFEPKISPAKPTRRVLITAGERDPICPVQLTKALEESLKAQGGTVETVWHPGGHEIRSGEIDAVRGFLAAYGG | not failed
MPRRTATMLASTLMLIALLCAGVFIKVPYAEMSPGPTVNTLGEHDGEPVLQITGHKTYATTGHLNMTTVRVTSADYRMNLVEAVYGWLAHDNKVVPHDTLYPDGKTEEQSTQENAEEFSQSQESAKVAALKELDIPVKSWVIVSTVLKDSPAEGRLHAGDVIKAVDGTAVKAPDDVAELVTKHKPGDDVAFTILPAKEQAAAEKSKTYVPRTKKVTITTAKSDDTGAPRAIVGISAGTDHTFPFTVDIKLADVGGPSAGLMFALGIVDKLTPDDLTGGKFVAGTGTIDDDGKVGPIGGIEMKTVGAREKGAQYFLTPKDNCAAAAKDTPEGLTLVKVNTIDDALDALKDIRTGKTADLPKCTTKG | failed
MPRSQADSALAEAERHLAAGRSQQAREAFRRARLFFHRCADTDGEAIVLVRLGEAELAAGHLASAKEALSDALALLSHETDPSARADALHLMGSLKNAEKNAPERDRLWAEAVSAHRDHGNKAGEARVLRDQAQVAKATGKDDLAFDLFSRAHRLYADLGHSFHEAMILLEIGQLHRAQGRADLAHDALERAADLFRVNGDTLDEGRTRLTLARLLRDLGDKETALRDLTLCAKLFGANGHLGGQAEALIDLARLEAAKAPKAALKMLHQARALAARSGIPSLQTQAASEIARLDQAALKDTP | failed
MPRSTAASAPLTVRPFSLVPLMAAYMACTMSMMAFVSLIGPISRALHLETWHAGAAVTVSGVIWMLLARPWGQASDRFGRRRVLLLGTAGFTLAYWALCLFIDLSLQSLPSVAMAFLGLMLGRGLIGAFYAAIPVGGFALIADNVEPQHRARAMATLGAANAVGLVLGPAVAALLARYSLSLPFYAMAVLPLLAFLVLRYQLPRQELHLAQAPTRVRLGDPRLRRPMVVAFVAMLCVSVAQITVSFYALDRLHMSPADAAQTAGVALAMVGVALICAQLVVRKLEWPPLRMIRYGALLSALGYAGSMLVDSAWGLWLAFFVSAAGMGGVFPSFSALAANAVEASEQGATAGSIGAAQGLGVVIGPMAGSLIYAIEPRLPYLLAAVLLVLIAIWPAPQPKDL | failed
MPRTQKNDNFVDKSFTVMADIILKILPTNKKAKEAFVYYRDGMSAQAEGEYAEALEYYEEALTLEEDTNDRGYILYNMGLIYASNGDHDKALELYHQAIELNPRLPQALNNIAVIYHYQGEKAKETGDHDGGEALFDQAADYWIRAIRMAPNNYIEAQNWLKTTGRMQIDVFF | failed
MPSDNQRLALLPVGRTGRLDRPSLLLTGGSGVLGRALIDELSPDFDLLCLRRDTPLRDPRVRELQGDLVAPRLGLSPLAWHELALEVDVVLHCAAETDWRTPPQDITRTNLRGADTVLDLAARADAPLYLVSTAFVANTPTEEDRRHFPGAAAYLDSMARAEQMTREAGVPGAIVRPSVVMGDSGSGRIAGRQGLTRMIGSMVLGQAPVLPGAPATRIDMVPRDYVSRAIGDLVRGGVADGEYWLTAGQEAMGLREFADVCADVAVRHGLPRPQRPRFIPVDAVHRLLLPMLAGTSLPASLRRRLEYYAELLLVFQRELPFDTSLGEPDCGTRPTRTDLRAALVRNAESWAGNRAGLLSPNRSAATAPMEVAS | failed
MPSEAFRRHRAYRENKLQPLVSVLICAYNVEKYFAQSLAAVVNQTWRNLDILIVDDGSTDGTLAIAQRFQEQDGRIRILAQPRNSGLIPSLNIGLDELAKSGGGGEYIARTDADDIAAPDWIEKIVGEMEKDRSIIAMGAWLEVLSEEKDGNRLARHHEHGKIWKKPTRHEDIADFFPFGNPIHNNTMIMRRSVIDGGLRYNTERDWAEDYQFWYDVSKLGRLAYYPEALVKYRLHANQVSSKYSIRQHEIAQGIQKTARNDFLQSMGFKTRFDSLEYRQIKAVAYELLEKHLPEEDFERARRFLYQCFKRTDTLPAGAWLDFAADGRMRRLFTLRQYFGILHRLLKNR | failed
